Experiments:
[1] = biological target: the molecule itself; assay: crystal structure; Nce103ΔN13, hanging drop vapor diffusion at 16°C; 20% PEG4000, 0.1 M sodium citrate pH 5.6, 0.1 M sodium acetate, 20% ethylene glycol; two molecules in the asymmetric unit; 2.04 Å
[2] = biological target: the molecule itself; assay: not stated; oligomeric state in solution, noted during purification (Ni2+ affinity, Superdex 75 gel filtration); how it was determined is not told

B1: Nce103ΔN13 (enzyme, S. cerevisiae, UniProt P53615 14-221, looked up)
chain: HNSNLQDILAANAKWASQMNNIQPTLFPDHNAKGQSPHTLFIGCSDSRYNENCLGVLPGEVFTWKNVANICHSEDLTLKATLEFAIICLKVNKVIICGHTDCGGIKTCLTNQREALPKVNCSHLYKYLDDIDTMYHEESQNLIHLKTQREKSHYLSHCNVKRQFNRIIENPTVQTAVQNGELQVYGLLYNVEDGLLQTVSTYTKVTPK
notes: Carbonic anhydrase Nce103 (β-class), S. cerevisiae strain S288C, ORF YNL036W, without the N-terminal 13 residues; residues His14 to Lys221; One zinc ion for each subunit; In the crystal the His tag, His14-Ser16 and Pro41-Gln48 are not seen in the density; also called truncated NCE103 without the N-terminal 13 residues; β-CA Nce103/YNL036W; source: for crystallization in 20 mM acetate buffer, pH …
[1]
  stoichiometry N: 2

B2: Nce103ΔN50 (enzyme, S. cerevisiae, UniProt P53615 51-221, looked up)
chain: HTLFIGCSDSRYNENCLGVLPGEVFTWKNVANICHSEDLTLKATLEFAIICLKVNKVIICGHTDCGGIKTCLTNQREALPKVNCSHLYKYLDDIDTMYHEESQNLIHLKTQREKSHYLSHCNVKRQFNRIIENPTVQTAVQNGELQVYGLLYNVEDGLLQTVSTYTKVTPK
notes: Carbonic anhydrase Nce103 (β-class), S. cerevisiae strain S288C, ORF YNL036W, residues His51-Lys221; the tag is probably N-terminal here too; also called truncated NCE103 without the N-terminal 50 residues
[2]
  stoichiometry N: 2
